Measured values from the supplement of paper PMC9170038.

Test system: MS2 coat protein
Assay: apparent KD of MS2 coat protein; designed switch direction (-1 OFF switch, 1 ON switch): -1; higher = weaker reporter binding
Summary of the method: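 Apparent KD, taken as the median over clusters for each design, was obtained by curve-fitting normalised cluster fluorescence. Designed RNA switches had been transcribed on Illumina chips by stalled E. coli RNA polymerase and titrated with SNAP-549-labelled MS2 coat protein, doubling from 0.7 or 1.5 nM to 3 µM.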

[1] = input ligand: microRNA oligo, concentration not stated
[2] = Eterna round: R95, input ligand: FMN 200 uM
[3] = Eterna round: R95, input ligand: microRNA oligo, concentration not stated
[4] = Eterna round: R95, input ligand: none

| Sequence | apparent KD of MS2 coat protein (input ligand: FMN 200 uM) | apparent KD of MS2 coat protein [1] | apparent KD of MS2 coat protein (input ligand: none) | apparent KD of MS2 coat protein [2] | apparent KD of MS2 coat protein [3] | apparent KD of MS2 coat protein [4] |
| --- | --- | --- | --- | --- | --- | --- |
| AAUAUACAUGUAGGAUAUCUGCACGAUUAGUGCAGAGAAGGACAUGAGGAUCACCCAUGUAAUUAAGAUCAAUUAUUAAAUAUU [ENG1/3-B1] (Eterna round: R96, puzzle: Exclusion NG 1) | 327 nM | 46.9 nM | 46.6 nM | – | – | – |
| AAUAUGUGAGGAUAUGCUUUAAGAAGAAUGAGUUUGAAAUAACAUGAGGAUCACCCAUGUAGAAGGCGCUAAAA [Lollin - Beta 1] (puzzle: Exclusion 2) | – | – | – | 19.4 nM | 19.3 nM | 25.9 nM |
| AAUCCACAUGAGGAUCACCCAUGUCAGGAUAUCGCGCGCGCGUUUUCGGUCUUGCGCGCGAGAAGGGACGGCUG (puzzle: Exclusion 1) | – | – | – | – | 22.9 nM | – |
| AAUCCACAUGAGGAUCACCCAUGUCAGGAUAUCGUGUCGCGGGUUUCGGUCCGUGAUGCGAGAAGGGACGGCUG (puzzle: Exclusion 1) | – | – | – | – | 27.4 nM | – |
| AAUCCACAUGAGGAUCACCCAUGUUAGGAUAUCGCGGAGAUCGACUGCGGAAGUUCUGCGAGAAGGAGCGUGAU [Eternabot (L2) Solution 18] (Eterna round: R97, puzzle: Exclusion 1) | 51.6 nM | – | 44 nM | – | – | – |
| AAUCCUGAAGUUAGGAUAUGAAGUAUCACUGCACUUCAGAAGGGACUUGAGGAUCACCCAAGUAGCCGUGAGGC [jl-bmx4.4.61 ViennaUCT mod] (Eterna round: R97, puzzle: Brourd's mod of Exclusion 4) | 156 nM | – | 35.6 nM | – | – | – |
| AAUGAGCUAGGAUAUACAUGAGGAUCACCCAUGUAAAAUAGGUCAUGGAUGAACCACUGUAGAAGGAGCAGGGC [Ateseszave] (puzzle: Exclusion 3) | – | – | – | 95.6 nM | 146 nM | 105 nM |
| AAUGUCCAACGAGGAUAUGGGAAAGGAAGUGUACCAGAAGGCGUACGGACAUGAGGAUCACCCAUGUCGCGCGGCGCGAUGUGG [PowerStrip EXNG 1.14] (Eterna round: R96, puzzle: Exclusion NG 1) | 80.9 nM | 46.4 nM | 52.7 nM | – | – | – |
| AAUGUUGUUGUGAGGAUAUCGUAGUUAUUUUGAAACGAGAAGGCACAUGAGGAUCACCCAUGUUUGUUGAUGGU [JR_BMOE4_Sub061] (puzzle: Brourd's mod of Exclusion 4) | – | – | – | – | 20.8 nM | – |
| AAUGUUUGAUACCUUUAAUACAUGAGGAUCACCCAUGUUAUCGAGGAUAUGUAGAAGAGAUGAGAACAGAAGGCGAAGUAAGAG [JR_ExcNG3_Sub097] (Eterna round: R96, puzzle: Exclusion NG 3) | 29.5 nM | 10.5 nM | 15.1 nM | – | – | – |
| AAUGUUUGAUUCCACUUAUACAUGAGGAUCACCCAUGUUAUCGAGGAUAUGCAUUAGAGUGUUUAGCAGAAGGCGAUGUAAUUG [JR_ExcNG3_Sub034] (Eterna round: R96, puzzle: Exclusion NG 3) | 90.2 nM | 13.1 nM | 13.8 nM | – | – | – |
| AAUUAAGCAAGCAGAUCCCACAUGAGGAUCACCCAUGUGCUCGUCUUAUAAGGUACUGUGACGAUAGUCACGGUACC [Mat - Sensor, turn-off var - Eli Mod - D71] (Eterna round: R97, puzzle: Sensor, turn-off variant 1) | 135 nM | – | 140 nM | – | – | – |
| AAUUACAAGCAAAGAUCCUACAUGAGGAUCACCCAUGUGCUCGUCUUAUAAAGUACUAUCACGAAAGUGAUAGUACA [Mat - Sensor v3 - turn-off var 1 - Eli Mod - D76] (puzzle: Sensor v3, turn-off variant 1) | – | – | – | 222 nM | 13.5 nM | 232 nM |
| AAUUAGUGAGGAUAUUCGAGCAGUGGCAGUAGCCAGUGCAUGAAGAAGGCACAUGAGGAUCACCCAUGUUAUAA [EX4 #60] (Eterna round: R97, puzzle: Exclusion 4) | 53.4 nM | – | 28.4 nM | – | – | – |
| AAUUAGUGUGUGAGGAUAUUGGUGGAAUGACUUAUUAAGAAGGCACAUGAGGAUCACCCAUGUGGGAAGUCACG [JR_BMEx4_Sub014] (Eterna round: R97, puzzle: Brourd's mod of Exclusion 4) | 10.1 nM | – | 12 nM | – | – | – |
| AAUUAUUAUUGAGGAUAUCGUAUUGAAACAAUACGAGAAGGCGGUAUAAACAUGAGGAUCACCCAUGUGAGCCUGAUGCUUAUG [Ex NG1 #99] (Eterna round: R96, puzzle: Exclusion NG 1) | – | 27.5 nM | – | – | – | – |
| AAUUCCGUAGGAUAUGGGAACCGGGACAUGAGGAUCACCCAUGUGAAGGAUGUCCCAACACCAGAAGGACGCAGCA [EX5 A.14] (Eterna round: R97, puzzle: Exclusion 5) | 47 nM | – | 25.9 nM | – | – | – |

| Sequence | apparent KD of MS2 coat protein (input ligand: FMN 200 uM) | apparent KD of MS2 coat protein [1] | apparent KD of MS2 coat protein (input ligand: none) | apparent KD of MS2 coat protein [2] | apparent KD of MS2 coat protein [3] | apparent KD of MS2 coat protein [4] |
| --- | --- | --- | --- | --- | --- | --- |
| AAUUUGCAAGCGAGAUCCCACAUGAGGAUCACCCAUGUGCUCGUCUUAUAAGGUACUGUGACAAUAGUCACGGUACC [Mat - Sensor, turn-off var - Eli Mod - D94] (Eterna round: R97, puzzle: Sensor, turn-off variant 1) | 16.7 nM | – | 20.8 nM | – | – | – |
| AAUUUUGGAGGAUAUACAUCCCAGGAUCCAGUAAUUAAGUUACAUGAGGAUCACCCAUGUAGAAGGUCAAGAGU [Eternabot (L1) Solution 75] (Eterna round: R97, puzzle: Exclusion 2) | 53.3 nM | – | 44.4 nM | – | – | – |
| ACAACAAGCUUUUUGUUCGUAGAACAUGAUGCUCUAGUCACAUGAGGAUCACCCAUGUCAACUAGAUAGAUAGUUGA [JR_SV3TOV2_Sub062] (puzzle: Sensor v3, turn-off variant 2) | – | – | – | 43 nM | 95.7 nM | 44.1 nM |
| ACAAGCGAAAGGCUCGUCUUAUUUUUGUAGAGGUCCUAAACAUGAGGAUCACCCAUGUAGUGGCGAUGGUGGAGGUA [JR_SV3TOV2_Sub068] (puzzle: Sensor v3, turn-off variant 2) | – | – | – | 91.2 nM | 134 nM | 103 nM |
| ACAAGCUCUGUGGGUGGUGACAUGAGGAUCACCCAUGUUUUGCUCGUCUUGUGGGCCCGGGCCCGCGGCCCGGGCCC [-41.4, -70.3, A 12%] (Eterna round: R97, puzzle: Sensor, turn-off variant 1) | 516 nM | – | 978 nM | – | – | – |
| ACAAGCUUAAUCAGUAUGAACAUGAGGAUCACCCAUGUAAAAGGGAAUACUAUUGGGUUUUUUAUAGCUCGUCUUAU [JR_STOV1_Sub018] (Eterna round: R97, puzzle: Sensor, turn-off variant 1) | 17.8 nM | – | 21.7 nM | – | – | – |
| ACAAGCUUAGGUAAUCAUAACAUGAGGAUCACCCAUGUUCGUCUUAUAAAAAUAAAAAUAAAAAACAAAAAAUAAAA [Sensor V2: 65] (Eterna round: R96, puzzle: Sensor v2, turn-off variant) | 33.3 nM | 70.6 nM | 33.8 nM | – | – | – |
| ACAAGCUUGUAAUGAUAGAACAUGAGGAUCACCCAUGUAAAUGGAAGAACCAAUUGGAUAAGAUAAACUCGUCUUAU [JR_STOV1_Sub003] (Eterna round: R97, puzzle: Sensor, turn-off variant 1) | 114 nM | – | 127 nM | – | – | – |
| ACAAGCUUUUAGAUUUUCAACAUGAGGAUCACCCAUGUUCGUCUUAGGCUAGUGCGAGUGCGGUGUACUCGUAUUAG [JL TOV1 3.84 sellena mod] (Eterna round: R97, puzzle: Sensor, turn-off variant 1) | 18.2 nM | – | 16.4 nM | – | – | – |
| ACAAGCUUUUUGCAAUUUAGUUUUGUUGCUUCGUAGGUAACAUGAGGAUCACCCAUGUAAGAGUGAUGUCGUCUUAU [JR_SV3TOV2_Sub084] (puzzle: Sensor v3, turn-off variant 2) | – | – | – | 520 nM | 141 nM | 609 nM |
| ACAAGCUUUUUGCAUCAAGCAUUAAAGUCUGUGAUCGUAACAUGAGGAUCACCCAUGUAAGUUUUAUGACGUCUUAU [JR_SV3TOV2_Sub096] (puzzle: Sensor v3, turn-off variant 2) | – | – | – | 24.8 nM | 39.8 nM | 25.3 nM |
| ACAAGCUUUUUGCAUCAAGCAUUAAAGUCUGUGAUCGUAACAUGAGGAUCACCCAUGUAAGUUUUAUGUCGUCUUAU [JR_SV3TOV2_Sub097] (puzzle: Sensor v3, turn-off variant 2) | – | – | – | 39.7 nM | 48.3 nM | 41.1 nM |
| ACAAGCUUUUUGCUCGGGUACAUGAGGAUCACCCAUGUUUGGGUUUAUUGAGGUUGUGUUGUCGUGCGCUGCAGGUU [JR_SV3TOV1_Sub076] (puzzle: Sensor v3, turn-off variant 1) | – | – | – | 165 nM | 416 nM | 232 nM |
| ACAAGCUUUUUGUUCGUCUUAUAAUAUUCAAUAAGGAUAACAUGAGGAUCACCCAUGUAACAAAGACGGACUCAUGU [Sesor Array 15 - Jieux - Sensor v3, turn-off variant 2] (puzzle: Sensor v3, turn-off variant 2) | – | – | – | 17.2 nM | 133 nM | 13 nM |
| ACACCGCAAGGAUAUACUUGCGGUGGUGUUCGAAGCUUUCUACUUGAGGAUCACCCAAGUAGAAGGUGCGGUGU [jl-ex2.4.73 ViennaUCT mod] (Eterna round: R97, puzzle: Exclusion 2) | 12.8 nM | – | 12.3 nM | – | – | – |
| ACACUUGAACAUGAGGAUCACCCAUGUGUUUUUCUGGUUCGGCAGGAUAUCGUCUAACGCCAGGGCGAGAAGGGCCAAUAAAAG [Inlale] (Eterna round: R96, puzzle: Exclusion NG 3) | 26 nM | 29.4 nM | 37 nM | – | – | – |
